# T1: p65-P8
# T1 chain: NGLLSGDEDFSA
# T2: p65-P6
# T2 chain: NGLLSGDEDFSS
# T3: p65-P7
# T3 chain: NGLLAGDEDFSS
# T4: p65-P1
# T4 chain: QLRRPSDRELSE
# B1: IKK complex immunoprecipitated from whole-cell extracts of TNF-treated cells (protein)
# chain 1: MERPPGLRPGAGGPWEMRERLGTGGFGNVCLYQHRELDLKIAIKSCRLELSTKNRERWCHEIQIMKKLNHANVVKACDVPEELNILIHDVPLLAMEYCSGGDLRKLLNKPENCCGLKESQILSLLSDIGSGIRYLHENKIIHRDLKPENIVLQDVGGKIIHKIIDLGYAKDVDQGSLCTSFVGTLQYLAPELFENKPYTATVDYWSFGTMVFECIAGYRPFLHHLQPFTWHEKIKKKDPKCIFACEEMSGEVRFSSHLPQPNSLCSLVVEPMENWLQLMLNWDPQQRGGPVDLTLKQPRCFVLMDHILNLKIVHILNMTSAKIISFLLPPDESLHSLQSRIERETGINTGSQELLSETGISLDPRKPASQCVLDGVRGCDSYMVYLFDKSKTVYEGPFASRSLSDCVNYIVQDSKIQLPIIQLRKVWAEAVHYVSGLKEDYSRLFQGQRAAMLSLLRYNANLTKMKNTLISASQQLKAKLEFFHKSIQLDLERYSEQMTYGISSEKMLKAWKEMEEKAIHYAEVGVIGYLEDQIMSLHAEIMELQKSPYGRRQGDLMESLEQRAIDLYKQLKHRPSDHSYSDSTEMVKIIVHTVQSQDRVLKELFGHLSKLLGCKQKIIDLLPKVEVALSNIKEADNTVMFMQGKRQKEIWHLLKIACTQSSARSLVGSSLEGAVTPQTSAWLPPTSAEHDHSLSCVVTPQDGETSAQMIEENLNCLGHLSTIIHEANEEQGNSMMNLDWSWLTE
# chain 2: MSWSPSLTTQTCGAWEMKERLGTGGFGNVIRWHNQETGEQIAIKQCRQELSPRNRERWCLEIQIMRRLTHPNVVAARDVPEGMQNLAPNDLPLLAMEYCQGGDLRKYLNQFENCCGLREGAILTLLSDIASALRYLHENRIIHRDLKPENIVLQQGEQRLIHKIIDLGYAKELDQGSLCTSFVGTLQYLAPELLEQQKYTVTVDYWSFGTLAFECITGFRPFLPNWQPVQWHSKVRQKSEVDIVVSEDLNGTVKFSSSLPYPNNLNSVLAERLEKWLQLMLMWHPRQRGTDPTYGPNGCFKALDDILNLKLVHILNMVTGTIHTYPVTEDESLQSLKARIQQDTGIPEEDQELLQEAGLALIPDKPATQCISDGKLNEGHTLDMDLVFLFDNSKITYETQISPRPQPESVSCILQEPKRNLAFFQLRKVWGQVWHSIQTLKEDCNRLQQGQRAAMMNLLRNNSCLSKMKNSMASMSQQLKAKLDFFKTSIQIDLEKYSEQTEFGITSDKLLLAWREMEQAVELCGRENEVKLLVERMMALQTDIVDLQRSPMGRKQGGTLDDLEEQARELYRRLREKPRDQRTEGDSQEMVRLLLQAIQSFEKKVRVIYTQLSKTVVCKQKALELLPKVEEVVSLMNEDEKTVVRLQEKRQKELWNLLKIACSKVRGPVSGSPDSMNASRLSQPGQLMSQPSTASNSLPEPAKKSEELVAEAHNLCTLLENAIQDTVREQDQSFTALDWSWLQTEEEEHSCLEQAS
# Legend:
# p65-P8 = biological target: T1, p65-P8
# p65-P6 = biological target: T2, p65-P6
# p65-P7 = biological target: T3, p65-P7
# p65-P1 = biological target: T4, p65-P1
protein,measurement,setting,value
B1,phosphorylation of peptide substrate in immunocomplex kinase assay,p65-P8,"p65-peptides in which Ser 276, 529 or 536 were mutated into alanine did not undergo phosphorylation by the IKK complex"
same,phosphorylation of peptide substrate in immunocomplex kinase assay,p65-P6,precipitated IKK complex can phosphorylate p65-P1 and p65-p6
same,phosphorylation of peptide substrate in immunocomplex kinase assay,p65-P2,"p65-peptides in which Ser 276, 529 or 536 were mutated into alanine did not undergo phosphorylation by the IKK complex"
same,phosphorylation of peptide substrate in immunocomplex kinase assay,p65-P7,"p65-peptides in which Ser 276, 529 or 536 were mutated into alanine did not undergo phosphorylation by the IKK complex"
same,phosphorylation of peptide substrate in immunocomplex kinase assay,p65-P1,precipitated IKK complex can phosphorylate p65-P1 and p65-p6

# From US20090111754
